Test results as given in US20220306747A1 (CHINA MEDICAL UNIVERSITY HOSPITAL, published 2022).

Assays:
[1] = molecular target: HLA-G recombinant protein (CAT #: TP305216, Origene) (human) (UniProt P17693); test: competitive ELISA, HLA-G coated, competitor biotinylated LILRB1
[2] = molecular target: HLA-G recombinant protein (CAT #: TP305216, Origene) (human) (UniProt P17693); test: competitive ELISA, HLA-G coated, competitor biotinylated KIR2DL4
[3] = molecular target: T1, HLA-G recombinant protein (CAT #: TP305216, Origene) (human, UniProt P17693 25-338, limits assumed); test: competitive ELISA, HLA-G coated, competitor biotinylated LILRB1; blocking normalized to 87G
T1 construct: Bought recombinant protein coated on the plate; also called human leukocyte antigen-G
Description: (§1) The procedure is as follows. HLA-G recombinant protein (CAT #: TP305216, Origene) (0.2 mg/ml, 100 μl each well) was coated on 96-well plate overnight at 4° C. Next day, the coating buffer was discarded, and blocked with 3% skin milk for 2 hr at room temperature, followed by washing 5 times with PBST (0.05% Tween in PBS). […] After 9 times of washing, each well was incubated with 100 μl PBST containing streptavidin-HRP conjugates (ThermoFisher, Cat No: N100, dilution titer: […]) for 2 hr at room temperature. After 9 times of washing with PBST, 50 μl of TMB substrate for detecting HRP activity (ThermoFisher, Cat No:N301) was added. The reactions were stopped by adding 50 μl stop solution (ThermoFisher, Cat No:N600), and it was measured by ELISA reader using 450 nm channel.

[4] = molecular target: T1, HLA-G recombinant protein (CAT #: …); test: competitive ELISA, HLA-G coated, competitor biotinylated KIR2DL4; blocking normalized to 87G
Description: as §1

Molecule	IC50 [1]	IC50 [2]	IC50 [3]	IC50 [4]
commercial anti-HLA-G monoclonal antibody (87G)	0.101 µg/mL	0.0414 µg/mL	–	–
anti-HLA-G nanobody clone #9 (VHH, also called anti-tumor antigen nanobody; anti-HLA-G nanobody (NB)) VHH: QVQLVESGGGSVQAGGSLRLSCEASGRTYSSNCMGWFRQAPGKERENVAAIYTGGDGITYADSVKGRFTISQDKLKNMLYLQMDSLKPEDTAMYYCAADPNRRRMGVGGSCLRANFGPGGQGTQVTVSS	–	–	0.000825 µg/mL	0.00614 µg/mL
anti-HLA-G nanobody clone #20 (VHH, also called anti-tumor antigen nanobody; anti-HLA-G nanobody (NB)) VHH: EVQLVESGGGSVRPGETLRLSCTASGFTVDDSDMSWYRQAPGDECELVSSITSGGGKYYSHPVKGRFTIFRDKGKNTMYLQMNSLVPEDTGVYYCVAPAWTGYGCTWGQGTQVTVSS	–	–	0.000174 µg/mL	0.814 µg/mL
